# Test results taken from patent CN114591431A.
# Molecular target: 重组人GAS6 his 蛋白(Novoprotein，Cat#C01W) (human) (UniProt Q14393)
# Test: ELISA, coated human GAS6 his 0.5 ug/ml, positive control
# Chain of UniProt Q14393 (Q14393 31-678 limits assumed, stated change not applied): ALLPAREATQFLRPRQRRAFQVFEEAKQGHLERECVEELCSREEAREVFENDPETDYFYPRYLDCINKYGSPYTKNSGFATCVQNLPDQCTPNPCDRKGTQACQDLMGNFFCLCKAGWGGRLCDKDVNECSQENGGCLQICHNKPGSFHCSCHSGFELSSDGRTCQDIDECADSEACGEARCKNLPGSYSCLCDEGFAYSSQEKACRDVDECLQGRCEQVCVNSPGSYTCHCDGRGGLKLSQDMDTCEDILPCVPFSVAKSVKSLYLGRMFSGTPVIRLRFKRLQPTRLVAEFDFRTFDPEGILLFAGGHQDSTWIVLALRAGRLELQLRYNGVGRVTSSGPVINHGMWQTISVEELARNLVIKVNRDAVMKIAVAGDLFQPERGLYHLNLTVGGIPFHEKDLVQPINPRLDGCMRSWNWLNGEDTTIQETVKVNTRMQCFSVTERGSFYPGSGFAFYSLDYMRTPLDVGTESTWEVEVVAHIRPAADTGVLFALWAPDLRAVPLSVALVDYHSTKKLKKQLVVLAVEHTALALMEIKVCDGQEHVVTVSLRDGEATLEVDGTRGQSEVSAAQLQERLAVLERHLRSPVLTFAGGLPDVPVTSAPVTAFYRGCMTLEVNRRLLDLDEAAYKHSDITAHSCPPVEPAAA
substance,measurement,value
"anti-huGas6 antibody (Santa cruz, sc-376087)",EC50,0.43 nM
